For test [1], the target named is CXCR4 (UniProt P61073).
The target in test [2] is CXCR4 (UniProt P61073). This is another data set of the same source.
For test [3], the target named is CXCR4 (UniProt P61073). The source holds these as a separate data set.

UniProt P61073, sequence (P61073 whole entry): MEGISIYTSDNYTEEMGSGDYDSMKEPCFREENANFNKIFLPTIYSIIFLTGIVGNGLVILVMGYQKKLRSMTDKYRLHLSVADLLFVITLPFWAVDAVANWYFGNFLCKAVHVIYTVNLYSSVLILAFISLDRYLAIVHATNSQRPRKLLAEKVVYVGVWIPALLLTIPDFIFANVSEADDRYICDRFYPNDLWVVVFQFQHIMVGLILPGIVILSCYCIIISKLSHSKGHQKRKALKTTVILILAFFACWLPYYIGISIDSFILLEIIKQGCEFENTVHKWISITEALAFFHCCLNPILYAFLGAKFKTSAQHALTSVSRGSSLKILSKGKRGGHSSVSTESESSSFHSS

The substance “CXCL12 wild type (from UniProt P48061-2 22-89) (ligand)” yielded a concentration of the best response, Transwell migration of Jurkat cells (endogenous CXCR4), 2 h, dilution series with CXCR4 [1] of 30 nM. Also, the Emax of IP accumulation, COS-7 cells with CXCR4-eYFP and chimeric Gαqi protein, normalized to CXCL12 wt with CXCR4 [2] was determined as 100%.

On to “[S4V]-[V49A]-CXCL12 (from UniProt P48061-2 22-89) (ligand)”, for which, in the test with CXCR4 [3], the fold decrease in Jurkat cell migration (endogenous CXCR4) compared with CXCL12 wt, Transwell assay is 11 fold.

Turning to “[S4V]-[V49A]-CXCL12-GPLS (from UniProt P48061-2 22-89) (ligand)”, the fold regain of migration potential against compound 4, Jurkat cells (endogenous CXCR4), Transwell assay with CXCR4 [3] is 2 fold.

As to “[S4V]-[V49A]-CXCL12-MMPCS-SBP (from UniProt P48061-2 22-89) (ligand)”, the concentration of the migration maximum, Transwell migration of Jurkat cells (endogenous CXCR4), 2 h, dilution series with CXCR4 [1] was 700 nM.
